From the RNAGym collection of RNA variant scans (doi:10.7554/elife.80360)

B1: Hairpin Ribozyme (parent)
chain: GUCCUCUUUCACGUGCGCGUGAAAGAGAGAAGUGAACCAGAGAAACACACGUUGUGGUAUAUUACCUGGUA

Variants of: B1
Assay: self-cleavage, relative activity (ratio to wild type); higher = more cleavage; co-transcriptional

In order of falling self-cleavage:
1. GUCCUCUUUCACGUGCGCGUGAAAGAGAGAAGUGAACCAGAGUAACACACGUUGUGGUAUAUUUCCUGGUA  0.266
2. GUCCUCUUUCACGUGCGCGUGAAAGAGAGAAGUGAACCAGAGUAACACACGUUGUGGUAAAUUACCUGGUA  0.255
3. GUCCUCUUUCACGUGCGCGUGAAAGAGAGAAGUGAACCAGAGAGCCACACGUUGUGGUAUAUUACCUGGUA  0.252
4. GUCCUCUUUCACGUGCGCGUGAAAGAGAGAAGUGAACCAGAGUAACACACGUUGUGGUAUAUUACCUGGUG  0.247
5. GUCCUCUUUCACGUGCGCGUGAAAGAGAGAAGUGAACCAGAGACAUACACGUUGUGGUAUAUUACCUGGUA  0.238
6. GUCCUCUUUCACGUGCGCGUGAAAGAGAGAAGUGAACCAGAGACACACACGUUGUGGUAUAUUAACUGGUA  0.213
7. GUCCUCUUUCACGUGCGCGUGAAAGAGAGAAGUGAACCAGAGUAACACACGUAGUGGUAUAUUACCUGGUA  0.206
8. GUCCUCUUUCACGUGCGCGUGAAAGAGAGAAGUGAACCAGAGUAACACACGUUGUGGUUUAUUACCUGGUA  0.204
9. GUCCUCUUUCACGUGCGCGUGAAAGAGAGAAGUGAACCAGAGUAACACACGUUGUGGUAUAUUACCUGGUU  0.179
10. GUCCUCUUUCACGUGCGCGUGAAAGAGAGAAGUGAACCAGAGUAACACACGUUGUGGUAUAUUACCUGUUA  0.174
11. GUCCUCUUUCACGUGCGCGUGAAAGAGAGAAGUGAACCAGAGACACACACGUUGCGGUAUAUUACCUGGUA  0.172
12. GUCCUCUUUCACGUGCGCGUGAAAGAGAGAAGUGAACCAGAGUAACACACGUUGUGGUGUAUUACCUGGUA  0.166
13. GUCCUCUUUCACGUGCGCGUGAAAGAGAGAAGUGAACCAGAGUAUCACACGUUGUGGUAUAUUACCUGGUA  0.164
14. GUCCUCUUUCACGUGCGCGUGAAAGAGAGAAGUGAACCAGAGUAACACACGUUGUGGUAUAUUCCCUGGUA  0.161
15. GUCCUCUUUCACGUGCGCGUGAAAGAGAGAAGUGAACCAGAGUAACACACGUUGUGGUAUAUUACCUGGCA  0.159
16. GUCCUCUUUCACGUGCGCGUGAAAGAGAGAAGUGAACCAGAGGAACACACGUUGUGGUAUAUCACCUGGUA  0.156
17. GUCCUCUUUCACGUGCGCGUGAAAGAGAGAAGUGAACCAGAGACACACACGUUGUAGUAUAUUACCUGGUA  0.152
18. GUCCUCUUUCACGUGCGCGUGAAAGAGAGAAGUGAACCAGAGGAACACACGUAGUGGUAUAUUACCUGGUA  0.152
19. GUCCUCUUUCACGUGCGCGUGAAAGAGAGAAGUGAACCAGAGUAACACACGUUGUGGUAUAUUACCUGGUA  0.151
20. GUCCUCUUUCACGUGCGCGUGAAAGAGAGAAGUGAACCAGAGUAACUCACGUUGUGGUAUAUUACCUGGUA  0.145
21. GUCCUCUUUCACGUGCGCGUGAAAGAGAGAAGUGAACCAGAGUAACACACGCUGUGGUAUAUUACCUGGUA  0.143
22. GUCCUCUUUCACGUGCGCGUGAAAGAGAGAAGUGAACCAGAGACAAACACGUUGUGGUAUAUUACCUGGUA  0.141
23. GUCCUCUUUCACGUGCGCGUGAAAGAGAGAAGUGAACCAGAGUAACACACGGUGUGGUAUAUUACCUGGUA  0.139
24. GUCCUCUUUCACGUGCGCGUGAAAGAGAGAAGUGAACCAGAGACACUCACGUUGUGGUAUAUUACCUGGUA  0.135
25. GUCCUCUUUCACGUGCGCGUGAAAGAGAGAAGUGAACCAGAGUAACGCACGUUGUGGUAUAUUACCUGGUA  0.121
26. GUCCUCUUUCACGUGCGCGUGAAAGAGAGAAGUGAACCAGAGACACACACGUUGUGGUAUAUUACCUGAUA  0.121
27. GUCCUCUUUCACGUGCGCGUGAAAGAGAGAAGUGAACCAGAGUAACACACGUCGUGGUAUAUUACCUGGUA  0.111
28. GUCCUCUUUCACGUGCGCGUGAAAGAGAGAAGUGAACCAGAGGAACACACGUUGUGGUAUAUGACCUGGUA  0.11
29. GUCCUCUUUCACGUGCGCGUGAAAGAGAGAAGUGAACCAGAGUAACACACGUUGUGGUAUAUUACCCGGUA  0.109
30. GUCCUCUUUCACGUGCGCGUGAAAGAGAGAAGUGAACCAGAGGAACACACGUCGUGGUAUAUUACCUGGUA  0.107
31. GUCCUCUUUCACGUGCGCGUGAAAGAGAGAAGUGAACCAGAGACACACACGUUGGGGUAUAUUACCUGGUA  0.102
32. GUCCUCUUUCACGUGCGCGUGAAAGAGAGAAGUGAACCAGAGACAGACACGUUGUGGUAUAUUACCUGGUA  0.0995
33. GUCCUCUUUCACGUGCGCGUGAAAGAGAGAAGUGAACCAGAGGAACACACGCUGUGGUAUAUUACCUGGUA  0.064
34. GUCCUCUUUCACGUGCGCGUGAAAGAGAGAAGUGAACCAGAGACACACUCGUUGUGGUAUAUUACCUGGUA  0.0612
35. GUCCUCUUUCACGUGCGCGUGAAAGAGAGAAGUGAACCAGAGACACACACGUUGUGGUACAUUACCUGGUA  0.0498
36. GUCCUCUUUCACGUGCGCGUGAAAGAGAGAAGUGAACCAGAGUAACACACGUGGUGGUAUAUUACCUGGUA  0.046
37. GUCCUCUUUCACGUGCGCGUGAAAGAGAGAAGUGAACCAGAGACACAUACGUUGUGGUAUAUUACCUGGUA  0.0439
38. GUCCUCUUUCACGUGCGCGUGAAAGAGAGAAGUGAACCAGAGACACACACGUUGUGGUAUAUUACCUCGUA  0.0374
